Data on two substances can be found in patent publication US20160185832A1.

The target of experiment [1] is microtubules polymerized in mouse brain homogenate (mouse) (UniProt P05213). The experiment in a line: microtubule co-sedimentation from mouse brain homogenate, western blot (FIG. 6F).
The target in experiment [2] is pure, pre-polymerized, taxol-stabilized microtubules of bovine tubulin (Cytoskeleton) (bovine) (UniProt P81947). The experiment in a line: in vitro microtubule co-sedimentation, percent of construct in the microtubule pellet (FIG. 4D).
The target of experiment [3] is microtubule network of cultured human cells (hTERT-RPE1, 293T) (human) (UniProt P68363). The experiment in a line: cell-based or functional assay.
Chain of microtubule network of cultured human cells (hTERT-RPE1, 293T) (human) (P68363 whole entry, chain 1 of 2): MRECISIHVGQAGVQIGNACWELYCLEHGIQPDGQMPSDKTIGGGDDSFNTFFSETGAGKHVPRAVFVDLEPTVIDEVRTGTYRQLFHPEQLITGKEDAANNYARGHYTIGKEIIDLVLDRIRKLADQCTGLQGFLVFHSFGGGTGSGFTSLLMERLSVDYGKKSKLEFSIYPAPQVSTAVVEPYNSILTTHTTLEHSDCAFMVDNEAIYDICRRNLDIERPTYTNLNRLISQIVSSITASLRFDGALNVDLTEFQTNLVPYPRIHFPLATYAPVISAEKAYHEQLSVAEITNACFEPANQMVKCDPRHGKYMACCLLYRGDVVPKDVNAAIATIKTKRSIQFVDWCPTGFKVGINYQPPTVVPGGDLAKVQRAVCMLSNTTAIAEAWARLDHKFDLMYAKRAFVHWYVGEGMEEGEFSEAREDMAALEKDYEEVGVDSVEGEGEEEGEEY
Chain of microtubule network of cultured human cells (hTERT-RPE1, 293T) (human) (P07437 whole entry, chain 2 of 2, further chain): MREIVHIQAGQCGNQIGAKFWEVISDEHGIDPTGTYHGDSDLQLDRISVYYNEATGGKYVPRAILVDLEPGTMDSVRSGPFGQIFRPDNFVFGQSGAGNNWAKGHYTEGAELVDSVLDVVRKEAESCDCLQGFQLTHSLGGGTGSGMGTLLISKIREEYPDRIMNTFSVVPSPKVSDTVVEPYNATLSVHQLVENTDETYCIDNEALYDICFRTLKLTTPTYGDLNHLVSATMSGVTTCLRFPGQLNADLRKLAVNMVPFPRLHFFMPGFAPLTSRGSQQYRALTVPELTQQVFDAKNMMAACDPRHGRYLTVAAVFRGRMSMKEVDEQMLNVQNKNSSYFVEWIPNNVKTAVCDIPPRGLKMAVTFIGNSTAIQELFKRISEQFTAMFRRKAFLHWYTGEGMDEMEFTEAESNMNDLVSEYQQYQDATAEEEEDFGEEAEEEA

Chain of microtubules polymerized in mouse brain homogenate (mouse) (P05213 whole entry, chain 1 of 2): as the sequence (P68363 whole entry, chain 1 of 2) above
Chain of microtubules polymerized in mouse brain homogenate (mouse) (Q9CWF2 whole entry, chain 2 of 2, further chain): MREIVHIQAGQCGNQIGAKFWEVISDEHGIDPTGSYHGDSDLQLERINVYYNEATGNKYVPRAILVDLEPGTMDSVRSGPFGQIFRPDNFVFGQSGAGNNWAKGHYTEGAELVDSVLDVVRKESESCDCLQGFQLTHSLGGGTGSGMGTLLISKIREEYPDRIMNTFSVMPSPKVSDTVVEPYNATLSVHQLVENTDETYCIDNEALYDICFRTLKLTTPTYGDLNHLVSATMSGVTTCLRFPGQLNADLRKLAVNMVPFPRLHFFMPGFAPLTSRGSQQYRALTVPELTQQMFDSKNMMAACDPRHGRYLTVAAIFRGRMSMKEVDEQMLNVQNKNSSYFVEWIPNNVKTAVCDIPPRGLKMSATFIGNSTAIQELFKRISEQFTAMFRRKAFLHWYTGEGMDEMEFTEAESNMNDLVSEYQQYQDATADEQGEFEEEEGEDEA
Chain of pure, pre-polymerized, taxol-stabilized microtubules of bovine tubulin (Cytoskeleton) (bovine) (P81947 whole entry, chain 1 of 2): as the sequence (P68363 whole entry, chain 1 of 2) above
Chain of pure, pre-polymerized, taxol-stabilized microtubules of bovine tubulin (Cytoskeleton) (bovine) (Q6B856 whole entry, chain 2 of 2, further chain): as the sequence (Q9CWF2 whole entry, chain 2 of 2, further chain) above

Substance “full length wild type (WT) mouse Cep290 from mouse brain homogenate, Q6A078 1-2472” showed a percent associated with microtubules in experiment [1] of 60%.
“GFP fusion of full length human CEP290 (aa 1-2479), O15078 1-2479” displayed a percent associated with microtubules in experiment [2] below 50%. In experiment [3], this substance returned a percent of transfected cells with increased microtubule acetylation and bundling of 40%; a percent of transfected hTERT-RPE1 cells with a fibrillar localization pattern of 10%.
